Source: the nanobody polyreactivity screen of Harvey et al. (2022)

Experiment: yeast display, Sf9 membrane polyspecificity reagent, FACS + sequencing; frameworks hold sequencing errors
Outline: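 A synthetic nanobody library was expressed on Saccharomyces cerevisiae BJ5465 by galactose induction for 36–48 hours. The library was stained for 1 hour at 4 °C with 10% biotinylated, detergent-solubilized Sf9 membrane reagent and enriched with streptavidin microbeads before FACS. Low and high (top ~1%) gates were set on anti-HA fluorescence for expression and streptavidin fluorescence for reagent binding, and each polyreactivity label reflects the gate of origin.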

Row | Sequence | polyreactivity (PSR sort gate)
1 | QVQLVESGGGLVQAGGSLRLSCAASGNIFYRYAMGWYRQAPGKERELVAAIRSGSSTNYADSVKGRFTISRDNAKNTVYLQMNSLKPEDTAVYYCAARSKYTHSRQSDYWGQGTQVTVSS | low polyreactivity
2 | QVQLVESGGGLVQAGGSLRLSCAASGSTLWYNAMGWYRQAPGKERELVATITAGGGSTYYADSVKGRFTISRDNAKNTVYLQMNSLKPEDTAVYYCATRRSRGPWYRNAYDYWGQGTQVTVSS | low polyreactivity
3 | QVQLVESGGGLVQAGGSLRLSCAASGRIFYIYAMGWSRQAPGKERELVASITSSGTSTYADSVKGRFTISRDNAKNTVYLQMNSLKPEDTAVYYCNARGYPKSWRYSRGYEYWGQGTQVTVSS | low polyreactivity
4 | QVQLVESGGGLVQAGGSLRLSCAASGRTFYRYAMGWYRQAAGTERELVAAISRSGGSTYYADSVKGRFTISRDHAKYTVYLQMNSLKPQDTAVYYCAAGYDGYKQGGGGYWGQGTQVTVSS | high polyreactivity
5 | QVQLVESCGGLVQAGGSLRLSCAASGRTFPAYAMGWSRQAPGKERELVAAISSSGSRTYYADSVKGRFTISRDNAKNTVYLQMNSLKQEDTAVYYCAARGGRRQKVNRDDYWGQGTQVTVSS | high polyreactivity
6 | QVQLVESGGGLVQAGGSLRLSCAASGRTFKFYAMGWYRQAPGKERELVAGIGSGGRTYYADSVKGRFTISRYNAKNTVYLHMNSLKPEDTAVYYCAARQYGPRYTYYYWGQGTQVTVSS | high polyreactivity
7 | QVQLVESGGGLVQAGGSLRLSCAASGRTFGYYGLGWSRQAPGKERELVAAITGSGGSTYYADSVKGRFTISRDNAKNTVYLQMNSLKPEDTAVYYCNTARRHGQTQGGDYWGQGTQVTVSS | high polyreactivity
8 | QVQLVESGGGLVQAGGSLRLSCAASGRIFRRYAMGWYRQAPWKERELVAAISTSGVRTYYADSVKGRFTISRDNAKNTVYLQMNSLNPEDTAVYYCATVAGPPYDYWGQGTLVTVSS | high polyreactivity
9 | QVQLVESGGGLVQAGGSVRLSCAASGRILKVYPMGWYRQAPGKEWEFVAAISVNGGRTYYADSVKGRFTISRDNAKNTVYLQRQRLNPEDTAVYYCAKRLYKPGNVFYSVDQSDYWGQGTQVTVSS | low polyreactivity
10 | QVQLVESGGGLVQAGGSLRLSCAASGITFYFYVMGWYRQAPGKERELVADISTSDDSTYYADSVKGRFTISRDNAKNTVYLQMNSLKPEDTAVYYCATATRTYSAWYEYDYWGQGTQVTVSS | low polyreactivity
11 | QVHLVESGGGLVQAGGSLRLSCAASGRTFAYNTMGWYRQAPGKERELVAAISSDGSTNYADSVKGRFTISRDNAKNTVYLQMNSLKPEDTAVYYCAKGEGTGYSDTQVYEHDYWGQGTQVTVSS | low polyreactivity
12 | QVQLVESGGGLVQAGGSLRLSCAASGFTFWDNAMGWYRQAPGKERELVAAISRRGGTTYYADSVKGRFTISRDNAKNTVYLQMNRLKPEATAVYYCNARRRSVPYRYDFWGQGTQVTVSS | high polyreactivity
13 | QVQLVESGGGLVQAGGSLRLSCAASGRIIYTYEMGWYRQAPGKERELVAAISGSGGSTYYADSVKGRFTISRDNSKTTLYLQMNRLKPEDTGVYYCNGAYYGYENLYKRGYWGQGSQVTVSS | high polyreactivity
14 | QVQLVESGGGLVQAGGSLRLSCAASGSIFRGNALGWYRQAPGKERELFAAISKSGGSTYYADSVKGRFTISRDNAKNTVDLEMNSLKPEDTAVYYCAARTTYLYGMYYWGQGTQVTVSS | low polyreactivity
15 | QVQLVESGGGLVQAGGSLRLSCAASRRIFASNAMGWNSQAPGKERELVAAITSSGGSTYYADSVKGRFTISLDNAKNTVYLQMNSLKPEDTAVYYCNAGDYYYRLVTAKPSSYDYWGQGTQVTVSS | high polyreactivity
16 | QVQLVESGGGLVQAGRTLRLSCAPSGSIFSYYAMGWYRQAPGKERELVAAITSGGTTYYADSVKGRFTISRDNAKNTVYLQMNSVKPEDTAVYYCAADFVFRWYSYTGRWYSSYDYWGQGTQVTVSS | low polyreactivity
17 | QVQLVESGGGLVQAGGSLRLSCAASGRTFFKNAMGWYRQAPGKERELVASISSRSGTTYYADSVKGRFTISRDNAKNTVYLQMNSLKPEDTAVYYCAADIYWWRGSTHGMDYWGQGTQVTVSS | high polyreactivity
18 | QVQLGESGGGLVQAGGSLRLSCAASGFTFGRYTMGWYRPAPGKERELVASITSSGARTYYADSVKGRFTISRDNAKNTVYLQMNSLKPEDTAVYYCNAGKRGSTYYYWGQGTQVTVSS | high polyreactivity
19 | QVQLVESGGGLDQAGGSLRLSCAASGSTFVVNAMGWYRQAPGKERELVAAIRNSGSTTYADSVKGRFTISRDNAKYTVYLQMNSLKPEDTAVYYCATDFSATVTAVQINPYDYWGQGTQVTVSS | low polyreactivity
20 | QVQLVESGGGLVQAGGSLRLSCAASGSTFRSYAMGWYRQAPGKERELVAAITSGANTNYADSVKGRFTISRDNAKNTVDLQMNSLKPEDTAVYYCAKASYIIFRIEYRSGYDYWGQGTQVTVSS | low polyreactivity
21 | QVQLVESGGGLVQAGGSHRLSCAASGSIFSTYAMGWYRQAPGKERELVAAITSDGTYADSVKGRFTISRDNARNTVYLQMNSLKPEDTAVYYCAAYYPYTRHGDYWGQGTQVTVSS | low polyreactivity
22 | QVQLVESGAGLVQAGGGLRLSCAASGFIFNLYAMGWYREAPGKERELVAAISSGGNTHYADSVKGRFTISRDNAKNTVYLQMNSLKPVDTAVYYCNADVNHVNKAWHVSFHQGYYWGQGTQVTVSS | low polyreactivity

Row | Sequence | polyreactivity (PSR sort gate)
23 | QVQLVESGGGLVQAGGSLRLICAASGRTFGVYAMGWYRQAPGKERELVADITSGGGTYYADSVKGRFTILRDNAKNTFYLQMNSLKPEDTAVYYFAARKWYYAYDYWGQGTQVTVSS | high polyreactivity
24 | QVQLVESGGGLVQAGGSLRLSCAASGRTYRYYAMGWYRQAPGKERELVAAITASTGRTYYADSVKGRFTISRDNAKNSVYLQMNRLKPEDTAVYYCDARQSSYRYPGSYEYWGQGTQVTVSS | high polyreactivity
25 | QVQLVESGGGLVQAGGSLRLSCAASGSIFRWNAMGWNRQEPGKERELVAVINSSGGSTYYADSVKGRFTISRDNAKNTVYLQMNSLKPEDTAVYYCAKGYDTTLTYNYWGQGTQVTVSS | low polyreactivity
26 | QVQLVESGGGLVQAGGSLRLSCAASGIIFIYNGMGWYRQAPGKERELVATINWSGGNTYYADSVKGRFTISRDNAKNTVSLQMNSLKPEDTAVYDCAVRGSRFWGYDYWGQGTQVTVSS | low polyreactivity
27 | QVQLVESGGGLVQAGGSLRLSCAASGSTFRPYAMGWYRQAPGTERELVAAISWSGGRTYYADSVKGRFTISRDNAKNNVYLQMNSLKPEDTAVYYCTRAGRQPKNTYDYWGQGTQVTVSS | high polyreactivity
28 | QVQLVESGGGLVQAGGSHRLSCAASGIILYHYAMGWYRQAPGKERELVATITSGGSTNYADSVKGRFTISRDYAKNTVDLQMNSLKPEDTAVYYCAAVPSRYGRYRYYYWGQGTQVTVSS | high polyreactivity
29 | QVQLVESGGGLVQAGGSLRLSCAASGIIFRHNAMGWYRQAPGKERELVAAISSGGNTYYADSVKGRFTISRDNAKNTVYLQMNSLKPEDTAVYYCAADVQDRYHRAWYDYWGQGTQVTVSS | low polyreactivity
30 | QVQLVESGGGLVQAGGSLRLSCAASGIIFSVYAMGWYRQAPGKERELVAAISWSGTSTYYADSVKGRFTISRDNAKNTVYLQMNSLKPEDTAVYYCNAKRYRYFGNEYWGQGTQVTVSS | high polyreactivity
31 | QVQLVESGGGLVQAGGSLRLSCAASGRIFYDYAMGWYRQAPGKQREFVAAIRWRGGSTYYADSVKGRFTISRDNAMNTVYLQMNSLKPEDTAVYYCATKSYYKFGYWGQGSQVTVSS | high polyreactivity
32 | QVQLVESGGGLVQAGGSLRLSCAASGRIFAYYTMGWYRQAPGKERELVAAISGSSGRTYYADSVKGRFTISRDNAKNTVYLQMNSLKPEDTAVYYCAARGFSFWRYYYWGQGTQVTVSS | high polyreactivity
33 | QVQLVESGGGLVQAGGSLRLSCAASGSTFKPNAMGWYRQAPGKERELVAAISGSGGSTYYADSVKGRFTISRDNAKNTVYLQMNSLKPEDTAVYYCAAYVYTIFSWYDYWGQGTQVTVSS | high polyreactivity
34 | QVQLVESGGGLVQAGGSLRLSCADSGSTFRYYAMGWYRQAPGKERELVAAITKNGGSTYYADSVKGRFTISRDNAKNTVYLEMNSLKPEDTAVYYCAVQFSYSGWYYVSYYYWGQGTQVTVSS | high polyreactivity
35 | QVQLVESGGGLVQAGGSLRLSCAPSGSTFPWNAMGWYRQAPGKERELVAAIRTGGGRTYYADSVKGRFTISRDNAKNTVYLQMNSLKPEDTAVYYCNAYFTYWSQLYYWGQGTQVTVSS | high polyreactivity
36 | QVQLVESGGGLVQAGGSLRLSCAASGSTFEYNVMGWYRQAPGKERELVAAITSGASTNYADSVKGRFTISRDNAKNSVYLQMNSLKPEDTAVYYCAAGESGSFFIYYYWGQGTQVTVSS | low polyreactivity
37 | QVQLVESGGRLVQAGASLRLSCAASASIFASNAMGWYRHEPGKERELVAAINSGDSTNYADSVKGRFTISRDNAKNTVYLQMNSLKPEDTAVYYCARGLEERYDYWGQGTQVTVSS | low polyreactivity
38 | QVQLVESGGGLVQAGGSLRLSCAASGRIFLLNAMGWYRQAPGKERELVARISSGRTYYADSVKGRFTISRDNAKNTVFLQMISLKPEDTAVYYCNATVSSSKFRYFYVNPYDYWGQGTQVTVSS | low polyreactivity
39 | QVQLVESGGGLVQAGGSLRLICAASGIIFNHNAMGWYRQAPGKERELVAAITLSGGTTYYADSVKGRFTISRDNAKNTVYVQMNSLKPEDTALYYCATRSYILGWRYDYWGQGTQVTVSS | high polyreactivity
40 | QVHLVESGGGLDQAGGSLRLSCAASGSTDGPYARGWSRQATGKERELVATINSSGSTNYADSLKGRFTISRDNAKNTVYLQMHSLKTEDTAVYYSASLHSYYWNDYWGQGTQVTVSS | low polyreactivity
41 | QVQLVESGGGLVQAGGSLRLSCAASGSIFTRYVMGWYRQAPGKERELVAAISGRGSSTYYADSVKGRFTISRDNAKNTVYLQMNSLKPEDTAVYYCAAEIVVFYSEGQRNTFYYWGQGTQVTVSS | high polyreactivity
42 | QVQLVESGGGLVQAGGSLRLSCAASVFTSLIYAMGWYRPAPGKERELVATLTWGGGSTYADSVKGRLTISRDNAQNTVYLQMNSLKPVDTAVYDCKADIYDSWVYATVYSDRYDYWGQGTQVTVSS | low polyreactivity
43 | QVQLVESGGGLVQAGGSLRLSCAASGTFAVYTMGWYRQAPGKERELVAAISSGGSTYYADSVKGRFTISRDNAKNTVYLQMNSLKPEDTAVYYCAKVPGRYRADRYWDHYSHDYWGQGTQVTVSS | high polyreactivity
